The values below come from paper PMC3954597 (Biochemistry, 2014).

For assay [1], the system named is HePTP. As to conditions: cited from earlier work.
In assay [2] the target is T1, TCPTP (Homo sapiens, UniProt P17706).
T1 sequence (P17706 1-314): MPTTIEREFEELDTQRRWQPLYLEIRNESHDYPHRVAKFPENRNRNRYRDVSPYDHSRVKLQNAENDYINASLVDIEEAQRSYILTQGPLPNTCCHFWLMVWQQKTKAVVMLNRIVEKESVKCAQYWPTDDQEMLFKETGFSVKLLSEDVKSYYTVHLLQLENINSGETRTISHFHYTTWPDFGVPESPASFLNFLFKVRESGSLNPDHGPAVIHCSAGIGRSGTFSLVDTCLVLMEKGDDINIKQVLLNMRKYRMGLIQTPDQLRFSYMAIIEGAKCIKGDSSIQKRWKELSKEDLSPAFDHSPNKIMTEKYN
Kind of assay: PTP assay, TCPTP. The format is biochemical. As to conditions: catalytic domain; 100 mM HEPES pH 7.4; monitored at 282 nm.

Assay [3] has as its target T2, SHP-2 (Homo sapiens, UniProt Q06124).
T2 sequence (Q06124 199-593): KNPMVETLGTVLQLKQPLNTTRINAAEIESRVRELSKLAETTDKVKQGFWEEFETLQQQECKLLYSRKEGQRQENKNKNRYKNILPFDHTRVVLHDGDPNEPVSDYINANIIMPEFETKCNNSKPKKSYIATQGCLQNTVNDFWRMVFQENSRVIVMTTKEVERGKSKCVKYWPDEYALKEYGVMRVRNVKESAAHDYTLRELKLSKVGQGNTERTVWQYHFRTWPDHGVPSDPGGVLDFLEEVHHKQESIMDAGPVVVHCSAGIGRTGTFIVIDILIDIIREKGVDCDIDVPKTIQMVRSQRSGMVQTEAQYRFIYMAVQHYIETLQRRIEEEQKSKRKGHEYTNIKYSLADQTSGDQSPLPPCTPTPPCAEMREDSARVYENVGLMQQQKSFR
The conditions noted are these: catalytic domain; cited from earlier work.

Assay [4] concerns the target SHP-1 (Homo sapiens, UniProt P29350). As to conditions: catalytic domain; cited from earlier work.
The target in assay [5] is T3, wild-type PTP1B catalytic domain (amino acids 1-321) (human) (UniProt P18031).
T3 sequence: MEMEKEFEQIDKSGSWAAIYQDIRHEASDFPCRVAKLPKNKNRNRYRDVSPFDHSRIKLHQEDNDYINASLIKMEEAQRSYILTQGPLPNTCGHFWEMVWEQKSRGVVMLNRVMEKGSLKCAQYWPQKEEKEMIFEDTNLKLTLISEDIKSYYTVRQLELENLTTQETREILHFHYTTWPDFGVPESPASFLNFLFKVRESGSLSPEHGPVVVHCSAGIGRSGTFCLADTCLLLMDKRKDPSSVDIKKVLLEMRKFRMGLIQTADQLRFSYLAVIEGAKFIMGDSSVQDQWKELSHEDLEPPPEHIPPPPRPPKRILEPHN

Assay [6] has as its target T4, R47E PTP1B catalytic domain (amino acids 1-321) (human) (UniProt P18031).
T4 sequence: T3 sequence with R47E

For assay [7], the target named is T5, R24M PTP1B catalytic domain (amino acids 1-321) (human) (UniProt P18031).
T5 sequence: T3 sequence with R24M

For assay [8], the target named is T6, PTP-PEST catalytic domain (aa 5-300), GST fusion (human) (UniProt Q05209).
T6 sequence: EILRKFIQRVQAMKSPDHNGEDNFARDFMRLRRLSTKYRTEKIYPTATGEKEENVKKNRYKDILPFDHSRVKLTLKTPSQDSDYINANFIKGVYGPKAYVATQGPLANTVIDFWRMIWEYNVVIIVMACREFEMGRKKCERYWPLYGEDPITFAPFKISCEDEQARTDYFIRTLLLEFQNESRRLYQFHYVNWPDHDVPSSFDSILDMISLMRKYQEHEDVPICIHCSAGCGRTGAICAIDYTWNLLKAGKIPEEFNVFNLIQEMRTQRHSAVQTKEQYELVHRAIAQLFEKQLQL

Residue numbers refer to the chain shown, from its start. Square brackets hold non-standard residues; d marks the D form. pY = N[C@@H](Cc1ccc(OP(=O)(O)O)cc1)C(=O)O

Chain of SHP-1 (P29350 205-595): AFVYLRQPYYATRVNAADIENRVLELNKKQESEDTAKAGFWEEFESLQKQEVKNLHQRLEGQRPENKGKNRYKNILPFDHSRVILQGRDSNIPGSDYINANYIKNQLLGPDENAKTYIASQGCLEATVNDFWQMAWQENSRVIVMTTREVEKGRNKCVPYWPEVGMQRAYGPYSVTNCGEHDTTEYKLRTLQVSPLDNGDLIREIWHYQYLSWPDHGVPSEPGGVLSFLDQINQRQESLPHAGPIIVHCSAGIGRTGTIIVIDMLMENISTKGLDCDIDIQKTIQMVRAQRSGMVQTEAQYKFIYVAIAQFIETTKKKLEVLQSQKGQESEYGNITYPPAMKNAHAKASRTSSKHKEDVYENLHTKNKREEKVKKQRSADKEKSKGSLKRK

Take “DHTGFLpTEpY^187VATRW [reference compound]”: the specificity constant (kcat/KM) in assay [1] is 4800 M⁻¹ s⁻¹.

For the molecule WDEDFpYDWEF, in assay [2], the Km turned out to be 0.31 ± 0.01 µM, the kcat came to 9.0 ± 0.4 s⁻¹ and the “kcat/KM x10^6” value was 29 x10^6 M^−1 s^−1. Moreover, in assay [3], the Km was 6.3 ± 0.4 µM, the kcat was 43 ± 1 ^c s^−1 and the “kcat/KM x10^6” value is listed as 6.8 ^c x10^6 M^−1 s^−1. Further, in assay [4], the Km is 3.2 ± 0.3 µM, the kcat is 75 ± 2 ^c s^−1 and the “kcat/KM x10^6” value is 23 ^c x10^6 M^−1 s^−1.

For the molecule “phospho-ERK2 protein: phosphorylated ERK2 protein, HePTP substrate recruited via KIM domain”, the “rate of dephosphorylation at the same site (pY187)” value in assay [1] is 2.6 × 10^6 M^−1 s^−1.

B1: nephrin pY1217 peptide Ac-DPRGIpYDQVAG-NH2 (peptide)
peptide: Ac-DPRGI[pY]DQVAG-NH2
SMILES: CC[C@H](C)[C@H](NC(=O)CNC(=O)[C@H](CCCNC(=N)N)NC(=O)[C@@H]1CCCN1C(=O)[C@H](CC(=O)O)NC(C)=O)C(=O)N[C@@H](Cc1ccc(OP(=O)(O)O)cc1)C(=O)N[C@@H](CC(=O)O)C(=O)N[C@@H](CCC(N)=O)C(=O)N[C@H](C(=O)N[C@@H](C)C(=O)NCC(N)=O)C(C)C
For B1, the figures for the KM, steady-state dephosphorylation of the pY peptide in assay [5], in assay [6] and in assay [7] were 7.1 µM, 23 µM and 71 µM, respectively.

B2: Ac-AApYDDAAA-NH2 (peptide)
peptide: Ac-AA[pY]DDAAA-NH2
SMILES: CC(=O)N[C@@H](C)C(=O)N[C@@H](C)C(=O)N[C@@H](Cc1ccc(OP(=O)(O)O)cc1)C(=O)N[C@@H](CC(=O)O)C(=O)N[C@@H](CC(=O)O)C(=O)N[C@@H](C)C(=O)N[C@@H](C)C(=O)N[C@@H](C)C(N)=O
For the molecule B2, the KM, steady-state dephosphorylation of the pY peptide in assay [5] was 6.5 µM; in assay [6], 34 µM.

B3: Ac-SASASpYSASA-NH2 (neutral) (peptide)
peptide: Ac-SASAS[pY]SASA-NH2
SMILES: CC(=O)N[C@@H](CO)C(=O)N[C@@H](C)C(=O)N[C@@H](CO)C(=O)N[C@@H](C)C(=O)N[C@@H](CO)C(=O)N[C@@H](Cc1ccc(OP(=O)(O)O)cc1)C(=O)N[C@@H](CO)C(=O)N[C@@H](C)C(=O)N[C@@H](CO)C(=O)N[C@@H](C)C(N)=O
Turning to B3, the KM, steady-state dephosphorylation of the pY peptide in assay [8] was 800 µM.

B4: Ac-EEDNAWpYAA-NH2 (peptide)
peptide: Ac-EEDNAW[pY]AA-NH2
SMILES: CC(=O)N[C@@H](CCC(=O)O)C(=O)N[C@@H](CCC(=O)O)C(=O)N[C@@H](CC(=O)O)C(=O)N[C@@H](CC(N)=O)C(=O)N[C@@H](C)C(=O)N[C@@H](Cc1c[nH]c2ccccc12)C(=O)N[C@@H](Cc1ccc(OP(=O)(O)O)cc1)C(=O)N[C@@H](C)C(=O)N[C@@H](C)C(N)=O
As for B4, the KM, steady-state dephosphorylation of the pY peptide was found to be 1.3 µM in assay [5], 9.5 µM in assay [6] and 1.9 µM in assay [7].

B5: Ac-YRKRFpYRYKF-NH2 (basic) (peptide)
peptide: Ac-YRKRF[pY]RYKF-NH2
SMILES: CC(=O)N[C@@H](Cc1ccc(O)cc1)C(=O)N[C@@H](CCCNC(=N)N)C(=O)N[C@@H](CCCCN)C(=O)N[C@@H](CCCNC(=N)N)C(=O)N[C@@H](Cc1ccccc1)C(=O)N[C@@H](Cc1ccc(OP(=O)(O)O)cc1)C(=O)N[C@@H](CCCNC(=N)N)C(=O)N[C@@H](Cc1ccc(O)cc1)C(=O)N[C@@H](CCCCN)C(=O)N[C@@H](Cc1ccccc1)C(N)=O
Take B5: the kcat/KM, steady-state dephosphorylation of the pY peptide (KM not given) in assay [8] was found to be 1500 M⁻¹ s⁻¹.

B6: Ac-AApYAAADD-NH2 (peptide)
peptide: Ac-AA[pY]AAADD-NH2
SMILES: CC(=O)N[C@@H](C)C(=O)N[C@@H](C)C(=O)N[C@@H](Cc1ccc(OP(=O)(O)O)cc1)C(=O)N[C@@H](C)C(=O)N[C@@H](C)C(=O)N[C@@H](C)C(=O)N[C@@H](CC(=O)O)C(=O)N[C@@H](CC(=O)O)C(N)=O
Consider B6, for which the KM, steady-state dephosphorylation of the pY peptide in assay [5] came to 3 µM; in assay [6] it was 10 µM; in assay [7] it was 8.7 µM.

B7: Ac-AApYDDIDE-NH2 (peptide)
peptide: Ac-AA[pY]DDIDE-NH2
SMILES: CC[C@H](C)[C@H](NC(=O)[C@H](CC(=O)O)NC(=O)[C@H](CC(=O)O)NC(=O)[C@H](Cc1ccc(OP(=O)(O)O)cc1)NC(=O)[C@H](C)NC(=O)[C@H](C)NC(C)=O)C(=O)N[C@@H](CC(=O)O)C(=O)N[C@@H](CCC(=O)O)C(N)=O
Consider B7, for which the KM, steady-state dephosphorylation of the pY peptide in assay [5] stood at 3.5 µM; in assay [6], 56 µM; in assay [7] it was 37 µM.

B8: Ac-AApYADDAA-NH2 (peptide)
peptide: Ac-AA[pY]ADDAA-NH2
SMILES: CC(=O)N[C@@H](C)C(=O)N[C@@H](C)C(=O)N[C@@H](Cc1ccc(OP(=O)(O)O)cc1)C(=O)N[C@@H](C)C(=O)N[C@@H](CC(=O)O)C(=O)N[C@@H](CC(=O)O)C(=O)N[C@@H](C)C(=O)N[C@@H](C)C(N)=O
For B8, the KM, steady-state dephosphorylation of the pY peptide in assay [5] was 2.2 µM; in assay [6], 12 µM; in assay [7], 6.4 µM.

B9: Ac-ARKRIpYAA-NH2 (peptide)
peptide: Ac-ARKRI[pY]AA-NH2
SMILES: CC[C@H](C)[C@H](NC(=O)[C@H](CCCNC(=N)N)NC(=O)[C@H](CCCCN)NC(=O)[C@H](CCCNC(=N)N)NC(=O)[C@H](C)NC(C)=O)C(=O)N[C@@H](Cc1ccc(OP(=O)(O)O)cc1)C(=O)N[C@@H](C)C(=O)N[C@@H](C)C(N)=O
Turning to B9, the KM, steady-state dephosphorylation of the pY peptide in assay [5] was 166 µM; in assay [6], 31 µM.

B10: Ac-AApYAADDA-NH2 (peptide)
peptide: Ac-AA[pY]AADDA-NH2
SMILES: CC(=O)N[C@@H](C)C(=O)N[C@@H](C)C(=O)N[C@@H](Cc1ccc(OP(=O)(O)O)cc1)C(=O)N[C@@H](C)C(=O)N[C@@H](C)C(=O)N[C@@H](CC(=O)O)C(=O)N[C@@H](CC(=O)O)C(=O)N[C@@H](C)C(N)=O
For the molecule B10, the KM, steady-state dephosphorylation of the pY peptide is 2.6 µM in assay [5], 11 µM in assay [6] and 6.9 µM in assay [7].

B11: Ac-AApYIRKRA-NH2 (peptide)
peptide: Ac-AA[pY]IRKRA-NH2
SMILES: CC[C@H](C)[C@H](NC(=O)[C@H](Cc1ccc(OP(=O)(O)O)cc1)NC(=O)[C@H](C)NC(=O)[C@H](C)NC(C)=O)C(=O)N[C@@H](CCCNC(=N)N)C(=O)N[C@@H](CCCCN)C(=O)N[C@@H](CCCNC(=N)N)C(=O)N[C@@H](C)C(N)=O
Turning to B11, the KM, steady-state dephosphorylation of the pY peptide came to 89 µM in assay [5] and 52 µM in assay [7].
